Where “and” joins values, the source holds several entries; their conditions need not be identical. Equal values may be shown once.
How the values were obtained:
A. suum = experiment: Assay for lytic activity against live A. suum; details: for 12 hours Death / 12 hours Lysis / 24 hours Death / 24 hours Lysis: protein conc. 0.1 mg/ml
casein = experiment: Proteolytic activity of SMP #1 (casein digestion), pH optimum and activity with detergents/solvents; format: biochemical
Procedure: Proteolytic activity was determined by casein digestion (Kunitz 1947). Substrate consisting of 0.75 ml 1.0% (w/v) casein in 100 mM TRIS/HCL, 1 mM MgCl2 (pH 8) at 30° C. Protease samples (0.1 ml) were brought to 30° C., added to the substrate and incubated at 30° C. After 30 minutes, the reaction was quenched with 0.5ml 10% (w/v) trichloroacetic acid (TCA). After 15 minutes at 25° C., the quenched reaction mixture was centrifuged at 10 000 g for 10 minutes to pellet precipitated protein and the A280 of the supernatant was determined. One unit of proteolytic activity was defined as the amount of enzyme that produced an increase of absorbance at 280 nM of 0.1 under the conditions of the assay.
Several compounds were tested as to characterize the novel protein. Effect of protease inhibitors (30-120 μ/ml antipain dihydrochloride, 1-4 μ/ml aprotinin, 20-80 μg/ml bestatin, 25-50 μg/ml chymostatin, 5-20 μg/ml E-64, 10-60 mM EDTA, 1-74 μg/ml leupeptin, 500-2000 μg/ml Pefabloc SC, 1-4 μ/ml pepstatin, 165-660 μlg/ml phosphoramidon and 100-400 μg/ml PMSF), SDS (0.1%-1%), Tween-20 (0.1%-1%), Triton X-100 (0.1%-1%), ethanol (1%-5%), and 2-mercaptoethanol (0.1%-1%) were determined by addition to the standard reaction mixture. Residual proteolytic activity was determined after incubation at 25° C. for 30 minutes.

R. similis = experiment: Assay for lytic activity against R. similis (microtiter plates); format: in vivo
Procedure: The assays were performed in microtiter plates. Ten microliters of R. similissuspensions were placed in microtiter plate wells. Serially diluted SMP #1 (100U in 0.1 ml stock) was added to the wells. PBS was added to a series of wells containing R. similis as a control. The nematodes were stored at 20° C. and examined for lytic effects or death at 48 and 96 hours.

[1] = Native isoelectric focusing; format: physicochemical; details: polypeptide produced by S. marcescens NRRL B-23112
Procedure: The isoelectric point (pI) of purified SMP#1 was determined using a vertical mini-gel system (Roberston et al. 1987) and 1.5 mm polyacrylamide gels consisting of 5% (w/v) 30:1 acrylamide/bisacrylamide, 10% (v/v) glycerol and 2% (w/v) pH 4-8 ampholytes. Electrode solutions were cooled to 4° C. prior to electrophoresis. The anode solution was 20 mM acetic acid and the cathode solution was 25 mM NaOH. Samples and protein standards (Sigma) were mixed with an equal volume of 50% (v/v) glycerol and 4%(w/v) ampholytes in the pH range of 4-8. Samples were prepared for isoelectric focusing by concentrating and desalting in a centriprep concentrator (Amicon) with a molecular mass exclusion limit of 10 000 Da. Electrophoresis was at 25° C. and 200 volts for 1.5 hours. The gels were fixed with 10% (w/v) trichloroacetic acid for 10 minutes with gentle agitation. Ampholytes were removed by shaking the gel for 2 hours in 1% (w/v) trichloroacetic acid. After rinsing with Milli-Q-water, the gels were stained with 0.25% (w/v) Coomassie blue R-250 in 45% (v/v) methanol and 10% (v/v) acetic acid for 10 minutes. The gels were destained in 45% (v/v) methanol and 10% (v/v) acetic acid until the background was clear.

B1: papain (protein, UniProt P00784 134-345, looked up)
Papain: IPEYVDWRQKGAVTPVKNQGSCGSCWAFSAVVTIEGIIKIRTGNLNEYSEQELLDCDRRSYGCNGGYPWSALQLVAQYGIHYRNTYPYEGVQRYCRSREKGPYAAKTDGVRQVQPYNEGALLYSIANQPVSVVLEAAGKDFQLYRGGIFVGPCGNKVDHAVAAVGYGPNYILIKNSWGTGWGENGYIRIKRGTGNSYGVCGLYTSSFYPVKN
Question: What does the source list for B1?
Answer: 12 hours Death (A. suum; 2-mercaptoethanol 0): (+); 12 hours Lysis (A. suum; 2-mercaptoethanol 0): (+++); 24 hours Death (A. suum; 2-mercaptoethanol 0): (+); 24 hours Lysis (A. suum; 2-mercaptoethanol 0): (+++)

B2: SMP #1: serratia metalloprotease isolated from S. marcescens NRRL B-23112, amino acid sequence SEQ ID NO:2; selective nematolytic activity (protein, listed as Serratia marcescens)
chain: MQSTKKAIEITESSLAAATTGYDAVDDLLHYHERGNGIQINGKDSFSNEQAGLFITRENQTWNGYKVFGQPVKLTFSFPDYKFSSTNVAGDTGLSKFSAEQQQQAKLSLQSWADVANITFTEVAAGQKANITFGNYSQDRPGHYDYGTQAYAFLPNTIWQGQDLGGQTWYNVNQSNVKHPATEDYGRQTFTHEIGHALGLSHPGDYNAGEGNPTYNDVTYAEDTRQFSLMSYWSETNTGGDNGGHYAAAPLLDDIAAIQHLYGANLSTRTGDTVYGFNSNTGRDFLSTTSNSQKVIFAAWDAGGNDTFDFSGYTANQRINLNEKSFSDVGGLKGNVSIAAGVTIENAIGGSGNDVIVGNAANNVLKGGAGNDVLFGGGGADELWGGAGKDIFVFSAASDSAPGASDWIRDFQKGIDKIDLSFFNKEAQSSDFIHFVDHFSGTAGEALLSYNASSNVTDLSVNIGGHQAPDFLVKIVGQVDVATDFIVHSNGTPGAVSAGRDA
Question: For B2, which “proteolytic activity retained in the presence of additive” value (“proteolytic activity retained” below) (casein; 2-mercaptoethanol (0.5% v/v)) is on record?
Answer: The value was “retains full activity”.

Question: What about the “proteolytic activity retained” value (casein; SDS (1% w/v)) of the same molecule?
Answer: The value was “retains full activity”.

Question: And the “proteolytic activity retained” value (casein; Triton X-100 (1% w/v))?
Answer: The value was “retains full activity”.

Question: And the “proteolytic activity retained” value (casein; Tween-20 (1% w/v))?
Answer: Its value is “retains full activity”.

Question: And the “proteolytic activity retained” value (casein; ethanol (5% v/v))?
Answer: The value was “retains full activity”.

Question: And the “Optimum pH” value (casein; polypeptide produced by S. marcescens NRRL B-23112)?
Answer: The value was 10.

Question: What about the “Dead (nematodes counted)” value (R. similis; 10 U/well, 10 wells, 20° C.) of the same molecule?
Answer: The value was 298 and 300.

Question: What about the “% mortality” value (R. similis; 10 U/well, 10 wells, 20° C., significant difference (p < 0.05) between treatments) of the same molecule?
Answer: The value was 99% and 100%.

Question: What about the “lysis / mortality of the nematode on contact” value (R. similis; R. similis) of the same molecule?
Answer: The value was “lyses the nematode”.

Question: And the “time until cuticle and body wall are lysed and internal viscera expelled” value (R. similis; R. similis)?
Answer: Its value is at most 30 h.

Question: And the Isoelectric point [1]?
Answer: The Isoelectric point was 6.1.

Question: What about the “lysis / mortality of the nematode on contact” value (A. suum; A. suum) of the same molecule?
Answer: The value was “lyses the nematode”.

Question: What about the “time until cuticle and body wall are lysed and internal viscera expelled” value (A. suum; A. suum) of the same molecule?
Answer: The value was at most 30 h.

Question: And the “12 hours Death” value (A. suum; 10 mM 2-mercaptoethanol)?
Answer: The value was “(+)”.

Question: And the “12 hours Lysis” value (A. suum; 10 mM 2-mercaptoethanol)?
Answer: The value was “(+++)”.

Question: What about the “24 hours Death” value (A. suum; 10 mM 2-mercaptoethanol) of the same molecule?
Answer: Its value is “(+)”.

Question: What about the “24 hours Lysis” value (A. suum; 10 mM 2-mercaptoethanol) of the same molecule?
Answer: Its value is “(+++)”.
